# Measured values: paper doi:10.1101/2023.02.02.526371 (bioRxiv, 2023)
# T1: recombinant PIF3-GST (Arabidopsis thaliana, UniProt O80536 1-524)
# T1 sequence (looked up): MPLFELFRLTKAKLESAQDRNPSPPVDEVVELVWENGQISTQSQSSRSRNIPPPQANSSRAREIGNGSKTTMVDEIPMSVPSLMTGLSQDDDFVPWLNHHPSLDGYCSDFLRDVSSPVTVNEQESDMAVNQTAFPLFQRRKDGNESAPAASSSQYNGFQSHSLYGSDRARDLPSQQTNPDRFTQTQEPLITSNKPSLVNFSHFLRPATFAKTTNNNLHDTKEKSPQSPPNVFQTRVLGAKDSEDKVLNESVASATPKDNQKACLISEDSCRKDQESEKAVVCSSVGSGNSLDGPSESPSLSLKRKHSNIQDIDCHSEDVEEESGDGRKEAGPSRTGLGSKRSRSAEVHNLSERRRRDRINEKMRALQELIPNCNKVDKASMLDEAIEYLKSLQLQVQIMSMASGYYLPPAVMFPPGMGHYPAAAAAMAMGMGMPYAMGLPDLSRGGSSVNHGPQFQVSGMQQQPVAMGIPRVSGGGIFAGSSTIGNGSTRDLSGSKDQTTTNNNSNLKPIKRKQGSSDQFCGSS
# Target: T1, recombinant PIF3-GST
# Assay: pull-down
binder,measurement,value
"His-tagged kinase domain of FER (518-816 amino acids, FER-KD) (domain or fragment) not shown",binding result,binds
